# Results taken from patent US20070071744A1 (published 2007).
# Ends that are not written are not given here.
# B1: monoclonal antibody hGP 5C4 (antibody, V domains shown)
# VH: EVKLQESGGGLVQPGRSLKLSCTASGFTFSDYFMSWVRQAPTRGLEWVASISSGGASAYWRDSVKGRFTISRDNAKSALYLQMDSLRSEDTATYFCARGELDFDYWGQGVMVAVSS
# VL: ADPNSTLLSASVGDRVTLNCTASQNVYKNLAWYQQKLGEAPRLLLYSANSQTGIPSRFSGSGSGPDFTLTISSLQPEDVASYFCQQYYSGNTFGAGTKLELKR
# notes: Rat hybridoma antibody (Lou/C rats), heavy chain gamma 2a, light chain kappa; also called ab 5C4; anti-GPVI mAb 5C4
# How the values were obtained:
# Assay in all cases: PepSpot peptide array
# [1] = molecular target: T1, peptide 1 (human)
# T1 peptide: Ac-MSPSPTALFCLGL
# Experimental: (§1) The peptides were synthesized on a cellulose membrane in a stepwise manner resulting in a defined arrangement (peptide array) and are covalently bound to the cellulose membrane. Binding assays were performed directly on the peptide array. In general an antigen peptide array is incubated with blocking buffer for several hours to reduce non-specific binding of proteins or antibodies. It follows the incubation with a primary (antigen peptide-binding) antibody in blocking buffer and an incubation with a horseradish peroxidase (HRP)-labelled secondary antibody, which binds selectively the primary antibody. Alternatively a HRP-labelled primary antibody in blocking buffer can be used.
# (§2) A short T(Tween)-TBS-buffer washing directly after the incubation of the antigen peptide array with the secondary protein or antibody or the HRP-labelled primary antibody followed by the first chemiluminescence experiment is made to get an first overview which antigen peptides do bind the primary antibody. Several buffer washing steps follow (T-TBS- and TBS-buffer) to reduce false positive binding (unspecific antibody binding to the cellulose membrane itself). After these washing steps the final chemiluminescence analysis is performed. The data were analysed with an imaging system showing the signal intensity (Light units, LU) as single measurements for each peptide. In order to evaluate non-specific binding of secondary antibodies, incubations using the secondary antibody have to be performed in the absence of the primary antibody as control incubation.
# [2] = molecular target: T2, peptide 10 (human)
# T2 peptide: Ac-PAQSGPLPKPSLQ
# Experimental: as §1, §2
# [3] = molecular target: T3, peptide 100 (human)
# T3 peptide: Ac-ELVVTGTSVTPSR
# Experimental: as §1, §2
# [4] = molecular target: T4, peptide 102 (human)
# T4 peptide: Ac-TGTSVTPSRLPTE
# Experimental: as §1, §2
# [5] = molecular target: T5, peptide 103 (human)
# T5 peptide: Ac-TSVTPSRLPTEPP
# Experimental: as §1, §2
# [6] = molecular target: T6, peptide 104 (human)
# T6 peptide: Ac-VTPSRLPTEPPSS
# Experimental: as §1, §2
# [7] = molecular target: T7, peptide 105 (human)
# T7 peptide: Ac-PSRLPTEPPSSVA
# Experimental: as §1, §2
# [8] = molecular target: T8, peptide 106 (human)
# T8 peptide: Ac-RLPTEPPSSVAEF
# Experimental: as §1, §2
# [9] = molecular target: T9, peptide 109 (human)
# T9 peptide: Ac-PSSVAEFSEATAE
# Experimental: as §1, §2
# [10] = molecular target: T10, peptide 11 (human)
# T10 construct: also called QSGPLPKPSLQAL
# T10 peptide: Ac-QSGPLPKPSLQAL
# Experimental: as §1, §2
# [11] = molecular target: T11, peptide 113 (human)
# T11 peptide: Ac-EATAELTVSFTNK
# Experimental: as §1, §2
# [12] = molecular target: T12, peptide 115 (human)
# T12 peptide: Ac-ELTVSFTNKVFTT
# Experimental: as §1, §2
# [13] = molecular target: T13, peptide 116 (human)
# T13 peptide: Ac-TVSFTNKVFTTET
# Experimental: as §1, §2
# [14] = molecular target: T14, peptide 119 (human)
# T14 peptide: Ac-KVFTTETSRSITT
# Experimental: as §1, §2
# [15] = molecular target: T15, peptide 123 (human)
# T15 peptide: Ac-RSITTSPKESDSP
# Experimental: as §1, §2
# [16] = molecular target: T16, peptide 128 (human)
# T16 peptide: Ac-DSPAGPARQYYTK
# Experimental: as §1, §2
# [17] = molecular target: T17, peptide 14 (human)
# T17 peptide: Ac-KPSLQALPSSLVP
# Experimental: as §1, §2
# [18] = molecular target: T18, peptide 15 (human)
# T18 construct: also called SLQALPSSLVPLE
# T18 peptide: Ac-SLQALPSSLVPLE
# Experimental: as §1, §2
# [19] = molecular target: T19, peptide 16 (human)
# T19 peptide: Ac-QALPSSLVPLEKP
# Experimental: as §1, §2
# [20] = molecular target: T20, peptide 17 (human)
# T20 peptide: Ac-LPSSLVPLEKPVT
# Experimental: as §1, §2
# [21] = molecular target: T21, peptide 19 (human)
# T21 peptide: Ac-LVPLEKPVTLRCQ
# Experimental: as §1, §2
# [22] = molecular target: T22, peptide 22 (human)
# T22 peptide: Ac-PVTLRCQGPPGVD
# Experimental: as §1, §2
# [23] = molecular target: T23, peptide 25 (human)
# T23 peptide: Ac-QGPPGVDLYRLEK
# Experimental: as §1, §2
# [24] = molecular target: T24, peptide 27 (human)
# T24 peptide: Ac-GVDLYRLEKLSSS
# Experimental: as §1, §2
# [25] = molecular target: T25, peptide 32 (human)
# T25 peptide: Ac-SSSRYQDQAVLFI
# Experimental: as §1, §2
# [26] = molecular target: T26, peptide 34 (human)
# T26 peptide: Ac-YQDQAVLFIPAMK
# Experimental: as §1, §2
# [27] = molecular target: T27, peptide 35 (human)
# T27 peptide: Ac-DQAVLFIPAMKRS
# Experimental: as §1, §2
# [28] = molecular target: T28, peptide 39 (human)
# T28 peptide: Ac-AMKRSLAGRYRCS
# Experimental: as §1, §2
# [29] = molecular target: T29, peptide 47 (human)
# T29 peptide: Ac-GSLWSLPSDQLEL
# Experimental: as §1, §2
# [30] = molecular target: T30, peptide 54 (human)
# T30 peptide: Ac-ATGVFAKPSLSAQ
# Experimental: as §1, §2
# [31] = molecular target: T31, peptide 58 (human)
# T31 peptide: Ac-SLSAQPGPAVSSG
# Experimental: as §1, §2
# [32] = molecular target: T32, peptide 64 (human)
# T32 peptide: Ac-GGDVTLQCQTRYG
# Experimental: as §1, §2
# [33] = molecular target: T33, peptide 65 (human)
# T33 peptide: Ac-DVTLQCQTRYGFD
# Experimental: as §1, §2
# [34] = molecular target: T34, peptide 67 (human)
# T34 construct: also called QCQTRYGFDQFAL
# T34 peptide: Ac-QCQTRYGFDQFAL
# Experimental: as §1, §2
# [35] = molecular target: T35, peptide 71 (human)
# T35 peptide: Ac-DQFALYKEGDPAP
# Experimental: as §1, §2
# [36] = molecular target: T36, peptide 73 (human)
# T36 peptide: Ac-LYKEGDPAPYKNP
# Experimental: as §1, §2
# [37] = molecular target: T37, peptide 74 (human)
# T37 peptide: Ac-KEGDPAPYKNPER
# Experimental: as §1, §2
# [38] = molecular target: T38, peptide 86 (human)
# T38 peptide: Ac-TAAHSGTYRCYSF
# Experimental: as §1, §2
# [39] = molecular target: T39, peptide 89 (human)
# T39 peptide: Ac-TYRCYSFSSRDPY
# Experimental: as §1, §2
# [40] = molecular target: T40, peptide 92 (human)
# T40 peptide: Ac-FSSRDPYLWSAPS
# Experimental: as §1, §2
# [41] = molecular target: T41, peptide 97 (human)
# T41 peptide: Ac-APSDPLELVVTGT
# Experimental: as §1, §2
binder,measurement,setting,value
B1,LU (Light Units),[1],149 LU
same,LU (Light Units),[2],1330 LU
same,LU (Light Units),[3],114 LU
same,LU (Light Units),[4],160 LU
same,LU (Light Units),[5],50 LU
same,LU (Light Units),[6],91 LU
same,LU (Light Units),[7],33 LU
same,LU (Light Units),[8],2 LU
same,LU (Light Units),[9],69 LU
same,LU (Light Units),[10],3540 LU
same,signal to noise ratio,[10],~20 ratio
same,LU (Light Units),[11],135 LU
same,LU (Light Units),[12],143 LU
same,LU (Light Units),[13],224 LU
same,LU (Light Units),[14],287 LU
same,LU (Light Units),[15],91 LU
same,LU (Light Units),[16],66 LU
same,LU (Light Units),[17],1420 LU
same,LU (Light Units),[18],74 LU
same,LU (Light Units),[19],80 LU
same,LU (Light Units),[20],160 LU
same,LU (Light Units),[21],157 LU
same,LU (Light Units),[22],76 LU
same,LU (Light Units),[23],56 LU
same,LU (Light Units),[24],100 LU
same,LU (Light Units),[25],319 LU
same,LU (Light Units),[26],125 LU
same,LU (Light Units),[27],186 LU
same,LU (Light Units),[28],134 LU
same,LU (Light Units),[29],79 LU
same,LU (Light Units),[30],1210 LU
same,signal to noise ratio,[30],~4 ratio
same,LU (Light Units),[31],110 LU
same,LU (Light Units),[32],6 LU
same,LU (Light Units),[33],26 LU
same,LU (Light Units),[34],62 LU
same,LU (Light Units),[35],29 LU
same,LU (Light Units),[36],33 LU
same,LU (Light Units),[37],8 LU
same,LU (Light Units),[38],58 LU
same,LU (Light Units),[39],46 LU
same,LU (Light Units),[40],110 LU
same,LU (Light Units),[41],147 LU
